# Reference: patent US20240002475A1 (ROCKEFELLER UNIVERSITY, published 2024)
# B1: LaG-41 (VHH)
# VHH: DVQLVESGGGLVQAGGSLRLSCAASGPTGAMAWFRQAPGKEREFVGGISGSETDTYYVDSVKGRFTVDRDNVKNTVYLQMNSLKPEDTAVYYCAARRRITLFTSRTDYDFWGRGTQVTV
# Target: green fluorescent protein (GFP), recombinant (Aequorea victoria, UniProt P42212 1-238 = GFP)
# Test: not stated there (SPR or in vitro binding assay)
binder,measurement,value
B1,Kd,0.9 nM
